# Reference: patent publication US20030121063
# Legend:
# [1] = molecular target: L1 ENp (L1 ORF2 endonuclease domain) (Homo sapiens) (UniProt O00370); experiment: cleavage_in_vitro; conditions: turnover number; Mg greatly preferred over Mn
# [2] = system: L1 ENp E43A E43A (Homo sapiens); experiment: cleavage_in_vitro; conditions: slightly leaky; 5 mM MgCl2
# UniProt O00370, sequence (O00370 1-239): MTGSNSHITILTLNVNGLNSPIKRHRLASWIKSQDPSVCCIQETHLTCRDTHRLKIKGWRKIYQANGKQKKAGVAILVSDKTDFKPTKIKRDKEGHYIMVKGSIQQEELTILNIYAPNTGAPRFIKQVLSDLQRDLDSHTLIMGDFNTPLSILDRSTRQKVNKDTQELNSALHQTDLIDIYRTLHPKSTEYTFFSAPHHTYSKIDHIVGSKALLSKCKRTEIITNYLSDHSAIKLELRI
substance,measurement,setting,value
"pBS plasmid, native",activity (phosphodiester bond cleavages per hour),[1],2
same,cleavage activity (fold less than wild type),[2],20
